In paper PMC6255834, “Single point mutations reveal amino acid residues important for Chromobacterium violaceum transaminase activity in the production of unnatural amino acids” (Scientific Reports, 2018) one finds Km, kcat and kcat/Km data, which are given here for one protein.

Common to all, as to assay: purified protein
Substrate in series [1]: CCCCCCC(=O)C(=O)O
The note with it: amino acceptor, 10 mM 1-PEA as donor, pH 7, 45 °C.

Substrate in series [2]: COC(=O)CC(C)=O
To be noted: amino acceptor, 10 mM 1-PEA as donor, pH 7, 45 °C, highest concentration tested 20 mM.

Substrate in series [3]: C[C@H](N)c1ccccc1
To be noted: amino donor, full reaction with 2.5 mM 2-OOA as acceptor, pH 7, 45 °C.

B1: CV_TA (Chromobacterium violaceum DSM30191 transaminase; ω-TA) (Chromobacterium violaceum ATCC 12472) (protein)
chain: MQKQRTTSQWRELDAAHHLHPFTDTASLNQAGARVMTRGEGVYLWDSEGNKIIDGMAGLWCVNVGYGRKDFAEAARRQMEELPFYNTFFKTTHPAVVELSSLLAEVTPAGFDRVFYTNSGSESVDTMIRMVRRYWDVQGKPEKKTLIGRWNGYHGSTIGGASLGGMKYMHEQGDLPIPGMAHIEQPWWYKHGKDMTPDEFGVVAARWLEEKILEIGADKVAAFVGEPIQGAGGVIVPPATYWPEIERICRKYDVLLVADEVICGFGRTGEWFGHQHFGFQPDLFTAAKGLSSGYLPIGAVFVGKRVAEGLIAGGDFNHGFTYSGHPVCAAVAHANVAALRDEGIVQRVKDDIGPYMQKRWRETFSRFEHVDDVRGVGMVQAFTLVKNKAKRELFPDFGEIGTLCRDIFFRNNLIMRACGDHIVSAPPLVMTRAEVDEMLAVAERCLEEFEQTLKARGLA
As to B1, in series [1], the Km was found to be 400 ± 150 µM, the kcat is 0.412 ± 0.0733 s⁻¹ and the kcat/Km came to 1030 M⁻¹ s⁻¹. For the same protein, in series [2], the Km came to 18800 ± 5000 µM, the turnover number (kcat) amounted to 0.155 ± 0.0117 s⁻¹ and the kcat/Km stood at 8.33 M⁻¹ s⁻¹. Also, the Km in series [3] worked out at 2600 ± 630 µM.

Usually Km stands for the substrate concentration at which the rate is half of its maximum. By kcat is commonly meant the number of substrate molecules converted per active site and unit of time at saturation. By kcat/Km is commonly meant the second-order rate constant that governs catalysis at low substrate concentration.
